# Numbering of substitutions follows the chain as printed.
# T1: ZFP SBS#1085 (synthetic)
# T1 chain: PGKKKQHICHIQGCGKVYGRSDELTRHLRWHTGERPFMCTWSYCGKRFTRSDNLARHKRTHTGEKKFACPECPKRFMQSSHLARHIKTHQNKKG
# T2: ZFP SBS#1084 (synthetic)
# T2 chain: T1 chain with Q78M, S80H, A83S
# T3: ZFP SBS#463 (synthetic)
# T3 chain: T1 chain with E23N, Q78R, S80D, H81A
# T4: ZFP SBS#464 (synthetic)
# T4 chain: T1 chain with E23N, Q78R, S80D, H81S
# T5: ZFP SBS#1066 (synthetic)
# T5 chain: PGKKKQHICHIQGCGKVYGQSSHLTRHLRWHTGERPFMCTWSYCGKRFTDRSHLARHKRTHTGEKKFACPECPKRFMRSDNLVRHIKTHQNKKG
# T6: ZFP SBS#1067 (synthetic)
# T6 chain: T5 chain with Q20T, S22G, T25V
# T7: ZFP SBS#1068 (synthetic)
# T7 chain: T1 chain with R20D, S21R, D22S, E23H, N53H, A55T, S80G, H81D, A83T
# T8: ZFP SBS#1071 (synthetic, UniProt P08047)
# T8 chain: T5 chain with Q20D, S21R, D50Q, R51S, S52G, H53D, A55T, N81H, V83S
# T9: ZFP SBS#1070 (synthetic, UniProt P08047)
# T9 chain: T5 chain with Q20D, S21R, D50Q, R51S, S52G, H53S, A55T, N81H, V83S
# T10: ZFP SBS#1080 (synthetic)
# T10 chain: T1 chain with Q78R, S80D, H81A, A83R, R84E
# T11: ZFP SBS#1094 (synthetic)
# T11 chain: T5 chain with Q20T, S22G, T25V, D50Q, R51S, H53A, A55T, N81E, L82R, V83K
# T12: ZFP SBS#1077 (synthetic)
# T12 chain: T1 chain with R50Q, D52G, N53D, A55R, Q78R, S80D, H81E, L82R, A83K
# T13: ZFP SBS#1076 (synthetic)
# T13 chain: T1 chain with R50Q, D52G, N53S, A55T, Q78R, S80D, H81E, L82R, A83K
# T14: ZFP SBS#1064 (synthetic)
# T14 chain: T1 chain with E23A, R50Q, D52G, N53S, A55T, Q78R, S80D, H81E, L82R, A83K
# T15: ZFP SBS#1075 (synthetic)
# T15 chain: T1 chain with N53A, A55T, R56K, Q78R, S80D, H81A, A83T
# T16: ZFP SBS#1081 (synthetic, UniProt P08047)
# T16 chain: T1 chain with E23A, A55T, Q78R, S80D, A83S
# T17: ZFP SBS#1069 (synthetic)
# T17 chain: T1 chain with R20D, S21R, D22S, E23H, N53H, A55T, S80G, H81S, A83T
# T18: ZFP SBS#1088 (synthetic, UniProt P08047)
# T18 chain: T1 chain with R20E, S21R, D22G, E23D, N53E, A55Q, Q78R, S80D, A83R, R84E
# T19: ZFP SBS#1087 (synthetic, UniProt P08047)
# T19 chain: T1 chain with R20E, S21R, D22G, E23D, N53E, A55Q, Q78R, S80D, R84E
# T20: ZFP SBS#1089 (synthetic)
# T20 chain: T1 chain with R20Q, D22S, E23D, T25R, Q78D, S79R, H81N, A83T
# T21: ZFP SBS#1065 (synthetic)
# T21 chain: T5 chain with Q20R, S22D, T25A, N81H, V83T, R84T
# T22: ZFP SBS#1082 (synthetic)
# T22 chain: T1 chain with N53E, A55T, Q78R, S80D, H81A, A83R, R84E
# T23: ZFP SBS#980 (synthetic, UniProt P08047)
# T23 chain: T1 chain with E23D, N53E, A55Q, Q78R, S80D, H81A, A83R, R84E
# T24: ZFP SBS#1083 (synthetic)
# T24 chain: T5 chain with S22G, H23D, D50R, R51S, S52D, H53A, A55S, N81A, V83R, R84E
# B1: GGTGAGGCG (dsDNA)
# DNA 1: GGTGAGGCG
# DNA 2: CGCCTCACC
# B2: GTGGAGGAGA (dsDNA)
# DNA 1: GTGGAGGAGA
# DNA 2: TCTCCTCCAC
# B3: GAGGGCGGT (dsDNA)
# DNA 1: GAGGGCGGT
# DNA 2: ACCGCCCTC
# B4: GCAGGGGGC (dsDNA)
# DNA 1: GCAGGGGGC
# DNA 2: GCCCCCTGC
# B5: GGGGCAGGC (dsDNA)
# DNA 1: GGGGCAGGC
# DNA 2: GCCTGCCCC
# B6: GGGGGGGCC (dsDNA)
# DNA 1: GGGGGGGCC
# DNA 2: GGCCCCCCC
# B7: GGATTGGCT (dsDNA)
# DNA 1: GGATTGGCT
# DNA 2: AGCCAATCC
# B8: CTGGAGGCG (dsDNA)
# DNA 1: CTGGAGGCG
# DNA 2: CGCCTCCAG
# B9: GCGGTTGGT (dsDNA)
# DNA 1: GCGGTTGGT
# DNA 2: ACCAACCGC
# B10: GCGGCAGCG (dsDNA)
# DNA 1: GCGGCAGCG
# DNA 2: CGCTGCCGC
# B11: GCGGCAGTG (dsDNA)
# DNA 1: GCGGCAGTG
# DNA 2: CACTGCCGC
# B12: GTGTTGGCG (dsDNA)
# DNA 1: GTGTTGGCG
# DNA 2: CGCCAACAC
# B13: GGGGAGGTG (dsDNA)
# DNA 1: GGGGAGGTG
# DNA 2: CACCTCCCC
# B14: GCAGGCGGT (dsDNA)
# DNA 1: GCAGGCGGT
# DNA 2: ACCGCCTGC
# B15: CGGGCGGCC (dsDNA)
# DNA 1: CGGGCGGCC
# DNA 2: GGCCGCCCG
# B16: GACGAGGCT (dsDNA)
# DNA 1: GACGAGGCT
# DNA 2: AGCCTCGTC
# B17: TGGGGCGGG (dsDNA)
# DNA 1: TGGGGCGGG
# DNA 2: CCCGCCCCA
# B18: CTGGCGGCG (dsDNA)
# DNA 1: CTGGCGGCG
# DNA 2: CGCCGCCAG
# B19: CTGGTGGCA (dsDNA)
# DNA 1: CTGGTGGCA
# DNA 2: TGCCACCAG
# B20: GGGGCTCGG (dsDNA)
# DNA 1: GGGGCTCGG
# DNA 2: CCGAGCCCC
# Legend:
# Assay in all cases: EMSA
# Details in all cases: tags: MBP fusion
# ZFP SBS#1085 = molecular target: T1, ZFP SBS#1085
# Method in brief: (§1)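 Purified ZFP was titrated against labeled double-stranded target (1 nM or lower, at least 10-fold below expected Kd) carrying the natural binding site with flanks. Binding buffer was 10 mM Tris pH 7.5, 100 mM KCl, 1 mM MgCl2, 0.1 mM ZnCl2, 5 mM DTT, 10% glycerol, 0.02% BSA, with equilibration for at least 45 min. Bound and free target were separated on a 10% polyacrylamide gel.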
# ZFP SBS#1084 = molecular target: T2, ZFP SBS#1084
# Method in brief: as §1
# ZFP SBS#463 = molecular target: T3, ZFP SBS#463
# Method in brief: as §1
# ZFP SBS#464 = molecular target: T4, ZFP SBS#464
# Method in brief: as §1
# ZFP SBS#1066 = molecular target: T5, ZFP SBS#1066
# Method in brief: as §1
# ZFP SBS#1067 = molecular target: T6, ZFP SBS#1067
# Method in brief: as §1
# ZFP SBS#1068 = molecular target: T7, ZFP SBS#1068
# Method in brief: as §1
# ZFP SBS#1071 = molecular target: T8, ZFP SBS#1071
# Method in brief: as §1
# ZFP SBS#1070 = molecular target: T9, ZFP SBS#1070
# Method in brief: as §1
# ZFP SBS#1079 = ZFP SBS#1079 (synthetic, UniProt P08047)
# Method in brief: as §1
# ZFP SBS#1078 = ZFP SBS#1078 (synthetic, UniProt P08047)
# Chain of ZFP SBS#1078 (P08047 other isoform, or with tags, fused parts or gaps): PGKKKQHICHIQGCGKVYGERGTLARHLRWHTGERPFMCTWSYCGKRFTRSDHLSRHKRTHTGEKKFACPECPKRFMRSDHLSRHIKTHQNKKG
# Method in brief: as §1
# ZFP SBS#1072 = ZFP SBS#1072 (synthetic)
# Chain of ZFP SBS#1072 (synthetic) (chain, as listed by the source): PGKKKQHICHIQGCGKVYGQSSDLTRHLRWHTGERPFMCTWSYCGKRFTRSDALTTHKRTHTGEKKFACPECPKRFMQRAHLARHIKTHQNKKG
# Method in brief: as §1
# ZFP SBS#1073 = ZFP SBS#1073 (synthetic)
# Chain of ZFP SBS#1073 (synthetic) (chain, as listed by the source): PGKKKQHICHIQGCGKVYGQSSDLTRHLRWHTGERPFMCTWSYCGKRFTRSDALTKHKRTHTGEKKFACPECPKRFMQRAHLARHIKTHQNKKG
# Method in brief: as §1
# ZFP SBS#1080 = molecular target: T10, ZFP SBS#1080
# Method in brief: as §1
# ZFP SBS#1094 = molecular target: T11, ZFP SBS#1094
# Method in brief: as §1
# ZFP SBS#1077 = molecular target: T12, ZFP SBS#1077
# Method in brief: as §1
# ZFP SBS#1076 = molecular target: T13, ZFP SBS#1076
# Method in brief: as §1
# ZFP SBS#1064 = molecular target: T14, ZFP SBS#1064
# Method in brief: as §1
# ZFP SBS#1075 = molecular target: T15, ZFP SBS#1075
# Method in brief: as §1
# ZFP SBS#1081 = molecular target: T16, ZFP SBS#1081
# Method in brief: as §1
# ZFP SBS#1069 = molecular target: T17, ZFP SBS#1069
# Method in brief: as §1
# ZFP SBS#1088 = molecular target: T18, ZFP SBS#1088
# Method in brief: as §1
# ZFP SBS#1087 = molecular target: T19, ZFP SBS#1087
# Method in brief: as §1
# ZFP SBS#1089 = molecular target: T20, ZFP SBS#1089
# Method in brief: as §1
# ZFP SBS#1065 = molecular target: T21, ZFP SBS#1065
# Method in brief: as §1
# ZFP SBS#979 = ZFP SBS#979 (synthetic, UniProt P08047)
# Method in brief: as §1
# ZFP SBS#1082 = molecular target: T22, ZFP SBS#1082
# Method in brief: as §1
# ZFP SBS#980 = molecular target: T23, ZFP SBS#980
# Method in brief: as §1
# ZFP SBS#1083 = molecular target: T24, ZFP SBS#1083
# Method in brief: as §1
# ZFP SBS#1086 = ZFP SBS#1086 (synthetic)
# Method in brief: as §1
binder,measurement,setting,value
B1,Kd,ZFP SBS#1085,460 pM
same,Kd,ZFP SBS#1084,500 pM
B2,Kd,ZFP SBS#463,500 pM
same,Kd,ZFP SBS#464,400 pM
B3,Kd,ZFP SBS#1066,150 pM
same,Kd,ZFP SBS#1067,1370 pM
B4,Kd,ZFP SBS#1068,2050 pM
B5,Kd,ZFP SBS#1071,200 pM
same,Kd,ZFP SBS#1070,456 pM
B6,Kd,ZFP SBS#1079,4100 pM
same,Kd,ZFP SBS#1078,200 pM
B7,Kd,ZFP SBS#1072,460 pM
same,Kd,ZFP SBS#1073,1370 pM
B8,Kd,ZFP SBS#1080,1370 pM
B9,Kd,ZFP SBS#1094,12300 pM
B10,Kd,ZFP SBS#1077,6200 pM
same,Kd,ZFP SBS#1076,4100 pM
B11,Kd,ZFP SBS#1064,453 pM
B12,Kd,ZFP SBS#1075,915 pM
B13,Kd,ZFP SBS#1081,50 pM
B14,Kd,ZFP SBS#1069,100 pM
B15,Kd,ZFP SBS#1088,905 pM
same,Kd,ZFP SBS#1087,1240 pM
B16,Kd,ZFP SBS#1089,171 pM
B17,Kd,ZFP SBS#1065,1370 pM
B18,Kd,ZFP SBS#979,1590 pM
same,Kd,ZFP SBS#1082,152 pM
same,Kd,ZFP SBS#980,2200 pM
B19,Kd,ZFP SBS#1083,152 pM
B20,Kd,ZFP SBS#1086,100 pM

# Reference: US20030068675, “Position dependent recognition of GNN nucleotide triplets by zinc fingers” (published 2003)
